{"source": "patent EP4474393A1", "binders": {"B1": {"name": "04_A06 (antibody, V domains shown)", "VH": "SVRLDQSGTAVKKPGASVRVSCRAPDSFTVYRPRLSAYFIGEFNIHWLRQAPGQGLEWLGFVNIFRGAVKYSSRFQGRITITRDTSSETSYLDLGALKADDTATYYCAWDKNVDDNPWRLDSWGQGTLVIVSS", "VL": "YIQVTQSPSSLSASIGDTITVACEVSQDVGWAVNWYHQRPGRPPYNLIYTAHNLAPGVASRFRGSRVGTYFTLTINNLLPEDVGTYYCQVFDSFAPGGTRVDL"}, "B2": {"name": "04_B09 (antibody, V domains shown)", "VH": "B1 VH with R74A, Q76R, S87L, A99P, Y106F, I130V", "VL": "YIQVTQSPSSLSASVGDTITVACQVSQDVGWAVNWYHQRPGRPPYNLIYTTSNLAPGVASRFRGTRVATYFTLTINNLLPEDVGTYYCQVFESFAPGGTRVDLR"}, "B3": {"name": "01_B01 (antibody, V domains shown)", "VH": "HVQLWQSGAEVKKPGASVKISCAAWGFGTTSGYSFRDYRIHWVRQVPGQGFQWMGHIQPRYGAVNYAHQFQGRITMTREVSFDASGGTAYMELRSLRSDDTATYYCVTHKLYDGEDASDLAWRLDPWGQGTRVTVSS", "VL": "GVHLTQSPASLSASVGDRVTFTCQASQDITNAINWYQLRPGKTPKLMIHDGSTLRRGVPSRFAGGGFGTKFTFTIDNLQPEDLATYFCQHYEFFPPAGTQVELN"}, "B4": {"name": "01_D03 (antibody, V domains shown)", "VH": "B3 VH with A23S, I40V, Q45H, V46I, P47A, I57M, H68R, T103V, A121T, T134I", "VL": "B3 VL with G65S, A97V"}, "B5": {"name": "05_C07 (antibody, V domains shown)", "VH": "HVQLWQSGAEVKKPGASVKISCSAWGFGTRSGYTFRDYRIHWVRQVPRQGFEWMGHLHPAYGAVNYARQFQGRIIMTREVSFDGSGGTVYMELRSLRSDDTATYYCVTHKLYDGEDASDLTWRLDPWGQGTRVTVSS", "VL": "B3 VL with H3S, S12C, G65S, K70R, E102D, L103F"}}, "assay_in_all_cases": "cell-based or functional assay", "key": {"[1]": {"target": "HIV-1 envelope proteins of the panel of 12 global reference pseudovirus strains of HIV-1"}, "[2]": {"target": "HIV-1 envelope proteins of the panel of 7 pseudoviruses selected from the 'Resistant panel to CD4bs bNAbs'"}, "[3]": {"target": "HIV-1 envelope proteins of the panel of 185 pseudoviruses generated from the Antibody Mediated Prevention Trials"}, "[4]": {"target": "HIV-1 envelope proteins of the multiclade panel of 119 pseudoviruses"}, "[5]": {"target": "HIV-1 envelope proteins of the panel of 100 clade C HIV-1 pseudoviruses"}, "[6]": {"target": "HIV-1 envelope proteins of the panel of 9 pseudoviruses resistant against CD4bs bNAbs"}, "[7]": {"target": "HIV-1 envelope proteins of the panel of 8 pseudoviruses insensitive to neutralization by CD4bs bNAbs"}}, "note": "Residue numbers refer to the chain shown, from its start.", "data": [{"binder": "B1", "values": [{"measurement": "geometric mean IC50, TZM-bl cell pseudovirus neutralization assay", "setting": "[1]", "value": 0.038, "unit": "µg/mL"}, {"measurement": "neutralization breadth, TZM-bl cell pseudovirus neutralization assay", "setting": "[1]", "value": 100, "unit": "%"}, {"measurement": "IC50, TZM-bl cell pseudovirus neutralization assay", "setting": "[2]", "value": 0.153, "unit": "µg/mL"}, {"measurement": "neutralization breadth, TZM-bl cell pseudovirus neutralization assay, up to 10 µg/ml", "setting": "[2]", "value": 86, "unit": "%"}, {"measurement": "GeoMean IC50, TZM-bl cell pseudovirus neutralization assay", "setting": "[3]", "value": 0.084, "unit": "µg/mL"}, {"measurement": "neutralization breadth, TZM-bl cell pseudovirus neutralization assay", "setting": "[3]", "value": "< 98", "unit": "%"}, {"measurement": "geometric mean IC50, TZM-bl cell pseudovirus neutralization assay", "setting": "[4]", "value": 0.036, "unit": "µg/mL"}, {"measurement": "neutralization breadth, TZM-bl cell pseudovirus neutralization assay, up to 10 µg/ml", "setting": "[4]", "value": 99, "unit": "%"}, {"measurement": "geometric mean IC50, TZM-bl cell pseudovirus neutralization assay", "setting": "[5]", "value": 0.057, "unit": "µg/mL"}, {"measurement": "neutralization breadth, TZM-bl cell pseudovirus neutralization assay, up to 10 µg/ml", "setting": "[5]", "value": 99, "unit": "%"}, {"measurement": "neutralization breadth, TZM-bl cell pseudovirus neutralization assay, up to 10 µg/ml", "setting": "[6]", "value": 100, "unit": "%"}]}, {"binder": "B2", "values": [{"measurement": "geometric mean IC50, TZM-bl cell pseudovirus neutralization assay", "setting": "[1]", "value": "< 0.05", "unit": "µg/mL"}, {"measurement": "neutralization breadth, TZM-bl cell pseudovirus neutralization assay", "setting": "[1]", "value": 100, "unit": "%"}]}, {"binder": "B3", "values": [{"measurement": "geometric mean IC50, TZM-bl cell pseudovirus neutralization assay", "setting": "[1]", "value": "< 0.05", "unit": "µg/mL"}, {"measurement": "neutralization breadth, TZM-bl cell pseudovirus neutralization assay", "setting": "[1]", "value": 100, "unit": "%"}]}, {"binder": "B4", "values": [{"measurement": "geometric mean IC50, TZM-bl cell pseudovirus neutralization assay", "setting": "[1]", "value": 0.021, "unit": "µg/mL"}, {"measurement": "neutralization breadth, TZM-bl cell pseudovirus neutralization assay", "setting": "[1]", "value": 100, "unit": "%"}, {"measurement": "neutralization breadth, TZM-bl cell pseudovirus neutralization assay", "setting": "[7]", "value": 88, "unit": "%"}]}, {"binder": "B5", "values": [{"measurement": "geometric mean IC50, TZM-bl cell pseudovirus neutralization assay", "setting": "[1]", "value": "< 0.05", "unit": "µg/mL"}, {"measurement": "neutralization breadth, TZM-bl cell pseudovirus neutralization assay", "setting": "[1]", "value": 100, "unit": "%"}]}]}
